Assay results from publication PMC2275136.

Target: p53 (purified recombinant) (UniProt P04637 1-393)
Assay: EMSA

Chain of p53 (purified recombinant) (P04637 whole entry): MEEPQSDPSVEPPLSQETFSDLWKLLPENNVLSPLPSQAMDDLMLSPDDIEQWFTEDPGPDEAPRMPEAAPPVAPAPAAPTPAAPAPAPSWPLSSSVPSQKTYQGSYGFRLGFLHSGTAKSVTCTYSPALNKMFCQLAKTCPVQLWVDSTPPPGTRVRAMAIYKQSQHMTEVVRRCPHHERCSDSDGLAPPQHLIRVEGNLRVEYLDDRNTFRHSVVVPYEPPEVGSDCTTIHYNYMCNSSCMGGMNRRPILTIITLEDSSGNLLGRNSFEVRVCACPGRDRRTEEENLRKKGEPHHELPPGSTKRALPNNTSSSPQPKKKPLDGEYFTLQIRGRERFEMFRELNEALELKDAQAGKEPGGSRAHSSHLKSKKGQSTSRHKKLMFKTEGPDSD

B1: p21 promoter p53 consensus duplex (dsDNA)
DNA 1: TTGAACATGTCCCAACATGTTGA
DNA 2: TCAACATGTTGGGACATGTTCAA
binding result: binds
